Data on two substances can be found in patent US20170184591A1.

The target in test [1] is EcSkp, biotin conjugate (naked chaperone without fused target) (Escherichia coli) (UniProt P0AEU7). Description: asymmetric DAGS ECL, Skp-Bi and FkpA-Ru 250 ng/ml each; sample: pool of anti-HTLV-negative human sera; background signal, duplicate 2.
Test [2] shares this target. Description: asymmetric DAGS ECL, Skp-Bi and FkpA-Ru 10 ng/ml each; sample: pool of anti-HTLV-negative human sera; background signal, duplicate 2.
Test [3] has the same target. As to the kind of experiment: asymmetric DAGS ECL, Skp-Bi and FkpA-Ru 250 ng/ml each; sample: pool of anti-HTLV-negative human sera; background signal, duplicate 1.
Test [4] shares this target. As to the kind of experiment: asymmetric DAGS ECL, Skp-Bi and FkpA-Ru 10 ng/ml each; sample: pool of anti-HTLV-negative human sera; background signal, duplicate 1.
In test [5] the target is EcFkpA, biotin conjugate (naked chaperone without fused target) (Escherichia coli) (UniProt P45523). As to the kind of experiment: asymmetric DAGS ECL, FkpA-Bi and Skp-Ru 250 ng/ml each; sample: pool of anti-HTLV-negative human sera; background signal, duplicate 2.
For test [6] the target is unchanged. As to the kind of experiment: asymmetric DAGS ECL, FkpA-Bi and Skp-Ru 10 ng/ml each; sample: pool of anti-HTLV-negative human sera; background signal, duplicate 1.
The target is the same in test [7]. Description: asymmetric DAGS ECL, FkpA-Bi and Skp-Ru 250 ng/ml each; sample: pool of anti-HTLV-negative human sera; background signal, duplicate 1.
For test [8] the target is unchanged. As to the kind of experiment: asymmetric DAGS ECL, FkpA-Bi and Skp-Ru 10 ng/ml each; sample: pool of anti-HTLV-negative human sera; background signal, duplicate 2.

Sequence of UniProt P0AEU7 (P0AEU7 21-161 limits assumed): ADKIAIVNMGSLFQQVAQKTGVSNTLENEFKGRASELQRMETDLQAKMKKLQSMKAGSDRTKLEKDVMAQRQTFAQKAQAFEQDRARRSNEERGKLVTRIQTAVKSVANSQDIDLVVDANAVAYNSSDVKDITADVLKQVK
Sequence of UniProt P45523 (P45523 26-270 limits assumed): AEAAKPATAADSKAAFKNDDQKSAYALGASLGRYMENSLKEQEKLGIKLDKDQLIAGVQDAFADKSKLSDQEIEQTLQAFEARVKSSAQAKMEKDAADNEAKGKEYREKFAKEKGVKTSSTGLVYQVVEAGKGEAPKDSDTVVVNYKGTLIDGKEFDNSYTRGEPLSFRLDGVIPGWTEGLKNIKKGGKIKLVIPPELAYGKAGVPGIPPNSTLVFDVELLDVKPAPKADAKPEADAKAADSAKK

On to “EcFkpA, ruthenium conjugate (naked chaperone without fused target) (from UniProt P45523 26-270)”, for which the Signal (counts) in test [1] is 2760 counts; in test [2], 561 counts; in test [3] it was 2670 counts; in test [4], 567 counts.

With “EcSkp, ruthenium conjugate (naked chaperone without fused target) (from UniProt P0AEU7 21-161)”, the Signal (counts) came to 864 counts in test [5], 447 counts in test [6], 854 counts in test [7] and 439 counts in test [8].
